This passage reports stoichiometry N results from paper PMC2120816.

The target in this experiment is thyroglobulin of normal mice (mouse (endogenous in thyroid tissue)) (UniProt O08710). The experiment can be described thus: native gel or EMSA.

The stoichiometry N is a count of units in the complex or per binding partner.

Consider “thyroglobulin of normal mice, O08710 21-2766”, for which the stoichiometry N amounted to 2.
